Laboratory results taken from patent US20090041770A1.

Molecular target: human FcRn fused to a His-tag and glutathione S transferase (FcRn-His-GST), complex of FcRn heavy chain with beta-2-microglobulin (human) (UniProt P55899)
Assay: AlphaScreen competition

Row | Substance | FcRn Binding ratio Variant / WT
1 | A327D (antibody) | 1.01
2 | A327H (antibody) | 1.29
3 | A327K (antibody) | 1.01
4 | A327Y (antibody) | 1.23
5 | A330G (antibody) | 1.01
6 | A330H (antibody) | 9.87
7 | A330L/I332E (antibody) | 1.5
8 | A330P (antibody) | 5.48
9 | A330W (antibody) | 1.02
10 | D221Y (antibody) | 2.74
11 | D249Q (antibody) | 2.06
12 | D265G (antibody) | 1.74
13 | D265P (antibody) | 1.18
14 | D270I (antibody) | 1.23
15 | D270S (antibody) | 1.03
16 | E233R (antibody) | 1.05
17 | E233S (antibody) | 1.1
18 | E233T (antibody) | 1.19
19 | E233Y (antibody) | 1.86
20 | E269G (antibody) | 1.34
21 | E269K (antibody) | 1.23
22 | E269S (antibody) | 1.31
23 | E269V (antibody) | 1.38

Row | Substance | FcRn Binding ratio Variant / WT
24 | E269W (antibody) | 1.19
25 | E269Y (antibody) | 24.8
26 | E272H (antibody) | 1.45
27 | E272L (antibody) | 1.81
28 | E272R (antibody) | 1.83
29 | E272V (antibody) | 1.77
30 | E283K (antibody) | 2.74
31 | E283R (antibody) | 1.86
32 | E294I (antibody) | 1.09
33 | E318L (antibody) | 3.61
34 | E318R (antibody) | 1.17
35 | E333F (antibody) | 1.96
36 | E333M (antibody) | 5.46
37 | F241L/V262I (antibody) | 1.37
38 | F241W (antibody) | 1.7
39 | F241W/F243W/V262A/V264A (antibody) | 1.91
40 | F243E (antibody) | 1.14
41 | F243L/V262I/V264W (antibody) | 1.35
42 | G236A (antibody) | 1.75
43 | G236F (antibody) | 1.75
44 | G236H (antibody) | 1.48
45 | G236I (antibody) | 1.33
46 | G236K (antibody) | 1.38

Row | Substance | FcRn Binding ratio Variant / WT
47 | G236N (antibody) | 1.89
48 | G236P (antibody) | 1.41
49 | G236T (antibody) | 1.56
50 | G236V (antibody) | 1.35
51 | G236W (antibody) | 1.52
52 | G236Y (antibody) | 1.52
53 | G237E (antibody) | 1.36
54 | G237H (antibody) | 1.48
55 | G237I (antibody) | 1.01
56 | G237K (antibody) | 1.47
57 | G237P (antibody) | 2.8
58 | G237Q (antibody) | 1.39
59 | G237S (antibody) | 1.29
60 | G237W (antibody) | 1.2
61 | H224E (antibody) | 5.11
62 | H268E (antibody) | 1.71
63 | H285D (antibody) | 2.4
64 | H285E (antibody) | 1.93
65 | H285Q (antibody) | 1.38
66 | H285Y (antibody) | 1.25
67 | I332H (antibody) | 1.24
68 | I332Q (antibody) | 1.2
69 | I332T (antibody) | 1.02

Row | Substance | FcRn Binding ratio Variant / WT
70 | I336E (antibody) | 8.11
71 | K246Y (antibody) | 2.47
72 | K274E (antibody) | 1.05
73 | K274F (antibody) | 1.02
74 | K274G (antibody) | 1.04
75 | K274I (antibody) | 1.08
76 | K288Y (antibody) | 1.1
77 | K320H (antibody) | 1.13
78 | K320W (antibody) | 1.11
79 | L234F (antibody) | 1.46
80 | L234H (antibody) | 1.48
81 | L234V (antibody) | 1.45
82 | L234Y (antibody) | 1.9
83 | L235Q (antibody) | 1.67
84 | L235V (antibody) | 1.31
85 | L328A (antibody) | 1.32
86 | L328D/I332E (antibody) | 11.8
87 | L328H/I332E (antibody) | 1.16
88 | L328I/I332E (antibody) | 2.21
89 | L328N/I332E (antibody) | 1.18

Results, then the substance that gave them:

Row | FcRn Binding ratio Variant / WT | Substance
90 | 1.55 | A327L (antibody)
91 | 1.08 | A327M (antibody)
92 | 25.3 | A330F (antibody)
93 | 1.78 | A330V (antibody)
94 | 1.53 | A330Y/I332E (antibody)
95 | 5.66 | D221K (antibody)
96 | 2.57 | D249Y (antibody)
97 | 1.38 | D265F/N297E/I332E (antibody)
98 | 1.16 | D265R (antibody)
99 | 2.09 | E233G (antibody)
100 | 1.13 | E233M (antibody)
101 | 1.64 | E233W (antibody)
102 | 1.07 | E258Y (antibody)
103 | 1.51 | E269F (antibody)
104 | 1.26 | E269I (antibody)
105 | 1.11 | E269M (antibody)
106 | 1.23 | E269P (antibody)
107 | 1.37 | E272D (antibody)
108 | 1.05 | E272I (antibody)
109 | 2.17 | E272P (antibody)
110 | 2.46 | E272T (antibody)
111 | 1.82 | E272W (antibody)
112 | 2.08 | E272Y (antibody)
113 | 6.25 | E283H (antibody)
114 | 1.33 | E283P (antibody)
115 | 1.42 | E283Y (antibody)

Row | FcRn Binding ratio Variant / WT | Substance
116 | 1.25 | E294G (antibody)
117 | 1.16 | E294K (antibody)
118 | 6.14 | E318Y (antibody)
119 | 1.03 | E333L (antibody)
120 | 1.09 | F241E (antibody)
121 | 1.99 | F241L (antibody)
122 | 1.12 | F241W/F243W (antibody)
123 | 1.89 | F241Y/F243Y/V262T/V264T (antibody)
124 | 4.63 | F243W (antibody)
125 | 1.53 | G236D (antibody)
126 | 1.46 | G236E (antibody)
127 | 1.6 | G236M (antibody)
128 | 1.46 | G236Q (antibody)
129 | 1.84 | G237D (antibody)
130 | 5.91 | G237L (antibody)
131 | 73.4 | G237M (antibody)
132 | 1.39 | G237N (antibody)
133 | 1.36 | G237R (antibody)
134 | 1.32 | G237T (antibody)
135 | 1.92 | G237Y (antibody)
136 | 1.33 | G281D (antibody)
137 | 1.46 | G281Y (antibody)
138 | 1.68 | H224Y (antibody)
139 | 1.88 | H268M (antibody)
140 | 1.76 | H285K (antibody)
141 | 1.33 | H285W (antibody)

Row | FcRn Binding ratio Variant / WT | Substance
142 | 1.75 | I332D (antibody)
143 | 1.32 | I332E (antibody)
144 | 3.2 | I332N (antibody)
145 | 59.3 | I332V (antibody)
146 | 1.43 | I332Y (antibody)
147 | 12.1 | I336K (antibody)
148 | 1.31 | K222Y (antibody)
149 | 1.01 | K274M (antibody)
150 | 1.26 | K274N (antibody)
151 | 1.08 | K274T (antibody)
152 | 1.07 | K320L (antibody)
153 | 2.01 | K320N (antibody)
154 | 1.54 | L234D (antibody)
155 | 1.25 | L234E (antibody)
156 | 2.54 | L234G (antibody)
157 | 1.26 | L234I (antibody)
158 | 1.03 | L234I/L235D (antibody)
159 | 1.06 | L234N (antibody)
160 | 1.19 | L234R (antibody)
161 | 1.32 | L235N (antibody)
162 | 1.51 | L235S (antibody)
163 | 1.65 | L235T (antibody)
164 | 1.02 | L235Y (antibody)
165 | 1.44 | L328E/I332E (antibody)
166 | 2.06 | L328F (antibody)
167 | 1.16 | L328G (antibody)
